According to article PMC8366792:

Columns and labels:
[1] = target: CH848 10.17DT DS SOSIP trimer (HIV-1 (CH848 10.17) | HIV-1 (BG505)) (UniProt Q2N0S6); test: SEC
[2] = target: CH848 10.17DT SOSIPv4.1 trimer (HIV-1 (CH848 10.17) | HIV-1 (BG505)) (UniProt Q2N0S6); test: SEC

Substance | percent of the total peak that is trimer [1] [%] | stoichiometry N [1] | percent of the total peak that is trimer [2] [%]
CH848 10.17DT DS SOSIP trimer (from UniProt Q2N0S6 509-661) (domain or fragment) | 65 | 3 | 
CH848 10.17DT SOSIPv4.1 trimer (from UniProt Q2N0S6 509-661) (domain or fragment) |  |  | 62
